B1: CR4354L4261 (antibody, human IgG1, lambda, V domains shown)
VH: QVQLVQSGAEVRKPGASVKVSCKASGYTFTHYYMHWVRQAPGQGLEWMGIINPSGGSTTYAQKLQGRVTMTRDTSTSTVYMELSSLRSEDTAVYYCARDWGSNYVWGSYPKYWGQGTLVTVSS
VL: TQAVLTQPSSASGTPGQRVTISCSGSSPNIGSNNVNWYQQLPGTAPKLLIYSNNQRPSGVPGRFSGSKSGTSASLAISGLQSEDEADYYCAAWDDGLSGNYVFGAGTQLTVLS
B2: CR4354L4335 (antibody, human IgG1, lambda, V domains shown)
VH: B1 VH
VL: TQSVLTQPPSTSGTPGQRVTISCSGSDSNIGSNTVNWYQQLPGMAPKLLIYRNNQRPSGVPDRFSGSKSGTSASLAISGLQSEDEADYFCASWDANLGGPLFGGGTKVTVLG
B3: CR4354L4328 (antibody, human IgG1, lambda, V domains shown)
VH: B1 VH
VL: TQAVLTQPSSVSGTPGQRVTISCSGSSSNIGSNTVNWYQQLPGTAPKLLIYGNNNRPSGVPARFSGSRSGTSASLAISGLRSEDEADYYCAAWDDSLNGPVFGGGTKLTVLG

Molecular target: WNV strain 385-99 (infectious, as used in the virus neutralization assay)
Assay: cell-based or functional assay

Binder | Potency (%) in 66% neutralization concentration, VNA [%]
B1 | 106
B2 | 60
B3 | 286

From patent US20090130652A1 (CRUCELL HOLLAND B V, published 2009)
